The DeepSol protein solubility set

assay: soluble on expression in E. coli; label from the status in PepcDB or PDB records

With “MALMTMVQALNRALDEEMAKDPRVVVLGEDVGKRGGVFLVTEGLLQKYGPDRVMDTPLSEAAIVGAALGMAAHGLRPVAEIQFADYIFPGFDQLVSQVAKLRYRSGGQFTAPLVVRMPSGGGVRGGHHHSQSPEAHFVHTAGLKVVAVSTPYDAKGLLKAAIRDEDPVVFLEPKRLYRSVKEEVPEEDYTLPIGKAALRREGKDLTLIGYGTVMPEVLQAAAELAKAGVSAEVLDLRTLMPWDYEAVMNSVAKTGRVVLVSDAPRHASFVSEVAATIAEDLLDMLLAPPIRVTGFDTPYPYAQDKLYLPTVTRILNAAKRALDY” as the sequence, how does the “soluble on expression in E. coli” value read?
Its value is “soluble”.

For “ENMLFTVVSLYISTKVLDFILEGYNPKKSVTIISDYYEEIATEIDANLERGITLFNGQGFYMRQDKKILYIVISRDQLLPLTKIVNKYDEKAFFIINDVQSVVGEGFTKQITSE”, which “soluble on expression in E. coli” value is on record?
Its value is “not soluble”.

Which “soluble on expression in E. coli” value does the source give for “MEELASLTKTADGKVLTSVTQKRNRADAATYIGKGKVEELKALVEELEADLLIFNDELSPSQLKSLATAIEVKMIDRTQLILDILAKRARTREGKLQIELAQLQYALPRLTGQGINLSRQGGGIGARGPGETKLETDRRHIRNRIHEINTQVSTVIRHRSRYRERRKKNGVLQIALVGYTNAGKSTWFNRLTSADSYEEDLLFATLDPMTRKMVLPSGYSVLLSDTVGFIQDLPTTLIAAFRSTLEEVKEADLILHLIDSSNEDYAGHEKTVLRLLEELEADDIPMLTAYNKRDQKLPDFYRPPEGITLWSVRNLRTTLQPLKKRFSAICAKNCLEHHHHHH” here?
The value was “not soluble”.

With “MASGAGGVGGGGGGKIRTRRCHQGPIKPYQQGRQQHQGILSRVTESVKNIVPGWLQRYFNKNEDVCSCSTDTSEVPRWPENKEDHLVYADEESSNITDGRITPEPAVSNTEEPSTTSTASNYPDVLTRPSLHRSHLNFSMLESPALHCQPSTSSAFPIGSSGFSLVKEIKDSTSQHDDDNISTTSGFSSRASDKDITVSKNTSLPPLWSPEAERSHSLSQHTATSSKKPAFNLSAFGTLSPSLGNSSVLKTSQLGDSPFYPGKTTYGGAAAAVRQSKLRNTPYQAPVRRQMKAKQLSAQSYGVTSSTARRILQSLEKMSSPLADAKRIPSIVSSPLNSVDSQYPPVQRLMTPKPVSIATNRSVYFKPSLTPSGEFRKTNQRIDKKCSTGYEKNMTPGQNREQRESGFSYPNFSLPAANGLSSGVGGGGGKMRRERTRFVASKPLEEEEMEVPVLPKISLPITSSSLPTFNFSSPEITTSSPSPINSSQALTNKVQMTSPSSTGSPMFKFSSPIVKSTEANVLPPSSIGFTFSVPVAKTAELSGSSSTLEPIISSSAHHVTTVNSTNCKKTPPEDCEGPFRPAEILKEGSVLDILKSPGFASPKIDSVAAQPTATSPVVYTRPAISSFSSSGIGFGESLKAGSSWQCDTCLLQNKVTDNKCIACQAAKLSPRDTAKQTGIETPNKSGKTTLSASGTGFGDKFKPVIGTWDCDTCLVQNKPEAIKCVACETPKPGTCVKRALTLTVVSESAETMTASSSSCTVTTGTLGFGDKFKRPIGSWECSVCCVSNNAEDNKCVSCMSEKPGSSVPTSSSSTVPVSLPSGGSLGLEKFKKPEGSWDCELCLVQNKADSTKCLACESAKPGTKSGFKGFDTSSSSSNSAASSSFKFGVSSSSSGPSQTLTSTGNFKFGDQGGFKIGVSSDSGSINPMSEGFKFSKPIGDFKFGVSSESKPEEVKKDSKNDNFKFGLSSGLSNPVSLTPFQFGVSNLGQEEKKEELPKSSSAGFSFGTGVINSTPAPANTIVTSENKSSFNLGTIETKSASVAPFTCKTSEAKKEEMPATKGGFSFGNVEPASLPSASVFVLGRTEEKQQEPVTSTSLVFGKKADNEEPKCQPVFSFGNSEQTKDENSSKSTFSFSMTKPSEKESEQPAKATFAFGAQTSTTADQGAAKPVFSFLNNSSSSSSTPATSAGGGIFGSSTSSSNPPVATFVFGQSSNPVSSSAFGNTAESSTSQSLLFSQDSKLATTSSTGTAVTPFVFGPGASSNNTTTSGFGFGATTTSSSAGSSFVFGTGPSAPSASPAFGANQTPTFGQSQGASQPNPPGFGSISSSTALFPTGSQPAPPTFGTVSSSSQPPVFGQQPSQSAFGSGTTPNSSSAFQFGSSTTNFNFTNNSPSGVFTFGANSSTPAASAQPSGSGGFPFNQSPAAFTVGSNGKNVFSSSGTSFSGRKIKTAVRRRK” as the sequence, how does the “soluble on expression in E. coli” value read?
Its value is “soluble”.

With “MSLPRLGIILHGVTGRMGYNQHLVRSILAIRDRGGITLQSGERLEIDPIIVGRNRDKMEQLAKRHDIARWSTDLDAALADPNDQIFFDAGTTLMRAELIGRALDAGKHVYCEKPISDDLRTAVKLARKARASGLKHGVVQDKLFLPGLRKLALLRDSGFFGKILSVRGEFGYWVFEGDWGVPAQRPSWNYRKKDGGGIILDMLCHWRYVLDNLFGEVKAVSCLGATHIPSRIDEQGRAYDCDTDDAAYATFELEGGIVAHINSSWAVRVRRDDLVTFQVDGTHGSAVAGLTKCWTQHRVNTPKPVWNPDQPQTIDFYRTWDEVPDTQAFDNGFKAQWEMFLRHVAEDGPWPHGLEAGAKGVQLAELGLKSWAERRWLDVPELEGHHHHHH” as the sequence, how does the “soluble on expression in E. coli” value read?
The value was “not soluble”.

With “KSKLGSKLNLIRNYKNLGITLNYKNGFKNCKGEYIAVLEGDDYWIQKSKLKRQVSFLESNRDCSLVFNKIVLDYGDEKINNLIYPFNDIRKKFSARELVRSNFIQNFSCCMYRKSSIRKLRESIYDMVVYDWMFNMAVAQFGLIGYIPNYMTSHRILKSGLWSGKSKMENLQMISKCIDQYDSFFKYKYRKEFSQNKQEVLQALRRLVMVNENG” as the sequence, how does the “soluble on expression in E. coli” value read?
The value was “not soluble”.

With “GMSDTVLTGLLDTVWQQFGRGTKDRHHPARHPTLATIGTDGPDLRTLVLRAASHAEATLEFHTDAASPKVAHIRRDARVAIHIWIPKASLQVRAKAIAKILPGDPNLFAQLPEAARMNYQGPVPGTPLPAEPDATPNRFTRLICHLSEIDVLHLTTPHQRAVYTAPDWRGIWVSP” as the sequence, how does the “soluble on expression in E. coli” value read?
Its value is “soluble”.

With “MGSDKIHHHHHHMRVLFVAPNYYPHIGGVERHVREVSLELQKDGHSITILVPKHDSSYGDFEREGNIEVVRLNKPQTKLFTGLERVLQVAGVSGRFLKADIVNFHDVATMWRYGLWIYPILRVLGKKVYITFHGWEGHFPPKDKIVARRKLAARLADGTMCVGHFIEKWYGTRADVVTYGGVHRSSLPEAHENSVVFVGRLAKDSGIDSYLRAWEWIVRDHPELRLVICGDGAMKKELEDFVCHTGLRNVEFLGLVENPLPYVTDAKVVFTSGYLGILEAFSRKKPVVAVYDNELKKDYLEMMPDSRRLMWIARDSKEVARCVDEALLDREKTERAYRYSLENSWTKVKEDYYRLWNVDGEHGESHGGRGR” as the sequence, how does the “soluble on expression in E. coli” value read?
The value was “not soluble”.

Which “soluble on expression in E. coli” value does the source give for “MGFSFLLATVQKERMKRRSRTRSRSRRRAKQDPKTWVARYIPQDLLIEILTRLPPKSVMRFKCVSKFWSSLLSSRYFCNRFLIVPSQPQPSLYMCLLDRYNYSKSLILSSAPSTSPYSFVFDQDLTIRKMGGFFLRILRGFIFFTRNLKARIYNPTTRQLVILPTIKESDIIAGPPYNILYFICHDPVNDRYKLLCTVSYASDNDLQNLKSELWIFVLEAGGSWKRVANEFPHHVPSHLDLNMNGVLYFLAWTDPHTCMLVSFDVRSEEFNTMQVPRNAGDTLPRQEKGVVNRVW” here?
Its value is “not soluble”.

With “MMQIDSIEIGGKVYQFFKSDLGNAPLLFIKGSKGYAMCGYLNMETSNKVGDIAVRVMGVKTLDDMLSAKVVEASQEAQKVGINPGDVLRNVIDKL” as the sequence, how does the “soluble on expression in E. coli” value read?
The value was “soluble”.

With “MSLPIRVPDELPAVNFLREENVFVMTTSRASGQEIRPLKVLILNLMPKKIETENQFLRLLSNSPLQVDIQLLRIDSRESRNTPAEHLNNFYCNFEDIQEQNFDGLIVTGAPLGLVEFNDVAYWPQIKQVLEWSKDHVTSTLFVCWAVQAALNILYGIPKQTRTDKLSGVYEHHILHPHALLTRGFDDSFLAPHSRYADFPAALIRDYTDLEILAETEEGDAYLFASKDKRIAFVTGHPEYDAQTLAQEYFRDVEAGLDPEVPYNYFPHNDPQNKPRASWRSHGNLLFTNWLNYYVYQITPYDLRHMNPTLDEGHHHHHH” as the sequence, how does the “soluble on expression in E. coli” value read?
The value was “soluble”.

For “MGSKYSKATNSINDALSSSYLVPFESYRVPLVDLEEATNNFDHKFLIGHGVFGKVYKGVLRDGAKVALKRRTPESSQGIEEFETEIETLSFCRHPHLVSLIGFCDERNEMILIYKYMENGNLKRHLYGSDLPTMSMSWEQRLEICIGAARGLHYLHTRAIIHRDVKSINILLDENFVPKITDFGISKKGTELGQTHLSTVVKGTLGYIDPEYFIKGRLTEKSDVYSFGVVLFEVLCARSAIVQSLPREMVNLAEWAVESHNNGQLEQIVDPNLADKIRPESLRKFGDTAVKCLALSSEDRPSMGDVLWKLEYALRLQESVIHHHHHH”, which “soluble on expression in E. coli” value is on record?
The value was “soluble”.

With “MSPKARWQFWIDRGGTFTDIVARSPDGKLITHKLLSEDPAHYEDAAMHGIRQILGLSENEPFPSEDVEAIKMGTTVGTNALLERKGERIVLVITKGFGDALRIGYQNRPDIFSQKIELPDQLYERVIEVSGRYSADGEEIVPLELESAKKELEEAYKAGIRSAAVILMHSYRYPEHELMLGRLATEIG” as the sequence, how does the “soluble on expression in E. coli” value read?
The value was “not soluble”.

For “MEDPVFTFGLIADVQYADIEDGENYLRTRRRYYRGSADLLRDAVLQWRRERVQCVVQLGDIIDGHNRRRDASDRALDTVMAELDACSVDVHHVWGNHEFYNFSRPSLLSSRLNSAQRTGTDTGSDLIGDDIYAYEFSPAPNFRFVLLDAYDLSVIGREEESEKHTHSWRILTQHNHNLQDLNLPPVSVGLEQRFVKFNGGFSEQQLQWLDAVLTLSDHKQERVLIFSHLPVHPCAADPICLAWNHEAVLSVLRSHQSVLCFIAGHDHDGGRCTDSSGAQHITLEGVIETPPHSHAFATAYLYEDRMVMKGRGRVEDLTITYS”, which “soluble on expression in E. coli” value is on record?
The value was “not soluble”.

Which “soluble on expression in E. coli” value does the source give for “LYWGDGQVWFDLPDKVTTHDSQLVGNLTELLKSVEHSFVLISPYFIPTEAGTKALTNAAKRGVDITIVTNSLASNDVFAVHGWYAKYREDLLESGIKLWEVKSSAKLKSKWSLTGSSRASLHAKAMTIDDKTLFVGSMNWDPRSAALNTEMAVVIEQPEYVQAFLAKLPSQLKDNAYRLTLRDGDIVWTNTKTGEEYDSEPEAGVFRRLGAWFSGILPIEDQL” here?
The value was “not soluble”.

With “SRKMSLMRKEKLRGKAIKYVPASLLTKEFYSEAFTLNVDVIENIPKEFITAKMCEEAIQKNRHNIAYIPFEYRTEKIITEAIKNNGLALSEIDDTQKTEQLCLLAIRNHGGALQYVPYQLRTPEICLEAVKNFNGALNYVPEHIRTADFHTEYLIEDDWIDELLAGYDERLLKAVRKDARNLAAIPEEQRTYELCVEALLNNNDSDSVLKYVPDEFKTPEFYRNCVRINNKHFKDIPDSMKSYELCFEAVTNSPYALEYVPQRLLTKEIILAALSQKSMAVLDYVPPEFMTEEVYTTAFKNDIFGDIAYIFPEEYRTKENYLAMLGNPYSVCSTIIKTMPDYLKTDDFLVAAAKLRDEMLEYVPEYLLTQELCYELVKANGYALRITPPQFITEALCRTAVESDPRALCYVPEEFRTHEICDLALQKDMGLIKYAPADFAITADLCRRAVEADADAINQIPEQFRTEELWRIAVSEYGRLLEDLPASLMSEEFCRLAVANDGRALEFVPDKNKTKDVCFEAVRNSGHALKFVDVSKLTKEEYSKLCRLAFER” as the sequence, how does the “soluble on expression in E. coli” value read?
The value was “not soluble”.

For “SLSERVRTYWIIIELKHKAREKPYDSKSLRTALQKEITTRYQLDPKFITSILYENNVITIDLVQNSSQKTQNDVDIADVAYYFEKDVKGESLFHSKKMDLTVNGEQLDLDPGQTLIYYVDEKAPEFSEG”, which “soluble on expression in E. coli” value is on record?
Its value is “soluble”.

With “MSLEFANFDSDLQYFLFQHIAVLLTANTKYRRALLLYGGAKNGKSVFINLVRSFFYSEDIVSKALNELQGRFDKESLVGKKLMASDEIGESRIQEKIVNDLKKLVSVEPVHVDRKGKTQVETTLDLKLAFGTNARLNFPSAHAKALERRIAVIPCEYYVEKADPDLIEKLQDEKKEIFLYLMYVYKQIVKNDIEYLQNDRVTEISHDWLNFGYEFVSSKSASIANQKACINLLRKLIEIKPGSRIKVSELNKVINEEIKVSSQVIKQLIQANFDTQTKLYNGYDYWIDLGWKEADKKEIHDISKKDNIISLDKNENITDDETLDEENLDFDWEDFDDEGHHHHHH” as the sequence, how does the “soluble on expression in E. coli” value read?
The value was “not soluble”.
